Experimental findings from patent publication US20090238754A1, “USE OF PYRENE TO CARRY PEPTIDES ACROSS THE BLOOD BRAIN BARRIER” (Adlyfe, Inc., priority 2008, published 2009) are described below.

Holding throughout (format): in vivo
Data set [1] concerns the target T1, Aβ plaques (Homo sapiens, UniProt P05067).
T1 construct: from tissue; host or cells: brain of living hAPP transgenic mice (in vivo dosing, brain sections imaged)
As to the kind of experiment: Intranasal administration of peptide agent conjugate to hAPP751SL transgenic mice and littermate controls, brain fluorescence imaging (Example 1). An excerpt:
The following illustrates the ability of peptide agent conjugates to target Aβ plaques (e.g., insoluble self-aggregates of Aβ protein associated with Alheimer's disease) in vivo. A peptide agent specific for Aβ corresponding to residues 16-35 of the Aβ protein (SEQ ID NO:3) with an added C-terminal lysine residue (e.g., SEQ ID NO:5) for conjugating pyrene, and labeled at each terminus with pyrene is used.
In vivo studies use four homozygous hAPP751SL transgenic 10 month old mice and four littermate controls (siblings not carrying the transgene). The labeled peptide agent conjugate is administered intranasally, at 10 μl liquid per administration (at concentrations of from 0.1 to 2.0 mg/ml) with an administration interval of a planned half of an hour, adjusted according to the condition of the animal after treatment.
At the end of the treatment, mice are sacrificed and CSF and brains are extracted. (All mice are sedated by standard inhalation anaesthesia, Isofluran, Baxter).
Cerebrospinal fluid is obtained by blunt dissection and exposure of the foramen magnum. Upon exposure, a Pasteur pipette is inserted to the approximate depth of 0.3-1 mm into the foramen magnum. CSF is collected by suctioning and capillary action until flow fully ceases. CSF is immediately frozen and kept at −80° C. until use.
After CSF sampling, the stomach, stomach content and the brains are rapidly removed. Brains are hemisected, and the right hemisphere of all mice are immersion fixed in freshly produced 4% Paraformaldehyde/PBS (pH 7.4) for one hour at room temperature, and transferred to a 15% sucrose/PBS solution for 24 hours to ensure cryoprotection. Thereafter, brains are frozen in liquid isopentane on the next day and stored at −80° C. until used for histological investigations. The other brain half is immediately shock frozen in liquid isopentane for future use.
To assess the specifity of staining by the peptide agent conjugate, fluorescence is excited using a UV-2A and B-1E filter of a microscope to detect probable auto-fluorescence in the lower spectrum. […]

Data set [2] deals with T1, Aβ plaques. As to the kind of experiment: Fluorescent labeling of Aβ plaques in brain after intranasal administration to hAPP transgenic mice (Example 2). Particulars: for fluorescent labeling of Aβ plaques (FIG. 1): three 10 μl injections at 20 minute intervals, sacrificed 6 hours later, hAPP transgenic mice. The protocol: Three groups of three hAPP transgenic mice were treated with vehicle (10% DMSO), the Aβ peptide-agent conjugate described above, or pyrene butyrate. Mice received three 10 μl injections at 20 minute intervals over a one hour period. Mice were sacrificed 6 hours later and tissues were collected. Flourescence in sagital sections was performed using fixed frozen tissue and a UV-2A fileter-equipped microscope. All plaque counts were performed on a digital images using Image-Pro-Plus software (Media Cybernetics, Inc., Bethesda, Md.).

Data set [3] addresses T1, Aβ plaques. The experiment in a line: Fluorescent labeling of Aβ plaques in brain after intravenous administration to hAPP transgenic mice (Example 3). Particulars: intravenous 30 mg/kg, tail vein, 6 hours after administration. The protocol: hAPP transgenic mice were administered the Aβ peptide-agent conjugate described above intravenously at a dose of 30 mg/kg through the tail vein. Mice were sacrificed at 6 hours after the administration of the conjugate, and brain sections were prepared for imaging as described above. After a section was imaged for conjugate fluorescence, it was bleached of fluorescence and stained with a Thioflavin S stain.

The nature of data set [4]: Clearance of conjugate determined by analysis of cerebrospinal fluid. Conditions: 6 hours post-administration; CSF revealed no evidence of circulating conjugate. The protocol:
The rate of localization and clearance or degradation of a conjugate can be assessed experimentally, for example, by administering the conjugates to mice and sacrificing them for analysis at different times post-administration, such as at time periods including 2 minutes, 10 minutes, 30 minutes, 60 minutes, 1 hour, 2 hours, 3 hours, 4 hours, 5 hours, 6 hours, or longer, post-administration.

pyrene = pyrene label

T1 sequence (P05067 672-713 limits assumed): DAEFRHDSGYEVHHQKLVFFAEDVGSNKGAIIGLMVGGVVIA

As for “AD185: Peptide of residues 16-35 of the Aβ protein with added C-terminal lysine (SEQ ID NO:5), labeled at each terminus with pyrene (pyrene-KLVFFAEDVGSNKGAIIGLMK-pyrene)”, the “binding to amyloid in the brain” value with Aβ plaques [1] (hAPP751SL transgenic mice) is “binds to the amyloid and agglomerates outside the blood vessel in the brain”. For the same substance, the “localization and binding in the brain” value in the data set with Aβ plaques [1] (nontransgenic mice) is given as “reaches the olfactory bulb, but does not bind to a specifiable morphological structure”. For the same substance, in the data set with Aβ plaques [1] (transgenic mice treated with the highest dose, brain images vs control mice and transgenic vehicle control), the “crossing of the blood-brain barrier (BBB)” value is listed as “crosses the blood-brain barrier”. Further, the “correlation between conjugate fluorescence and Thioflavin S staining” value is “positive correlation” with Aβ plaques [2] (hippocampus (data not shown)), “significant correlation” with Aβ plaques [3] (cortex (FIG. 3A)) and “significant correlation” with Aβ plaques [3] (hippocampus (FIG. 3B)). The “coincidence of conjugate fluorescence with 6E10 antibody and Thioflavin S plaque staining” value with Aβ plaques [2] (sequential sagital brain sections, co-merged images) was “coincided with the antibody and Thioflavin S plaque staining”. In the data set with Aβ plaques [2], the “fluorescent labeling of Aβ plaques (FIG. 1)” value is “showed fluorescent labeling of Aβ plaques”. In addition, in data set [4], the “clearance, as determined by analysis of cerebrospinal fluid” value is on record as “cleared”.
pyrene butyrate [reference compound]: the “fluorescent labeling of Aβ plaques (FIG. 1)” value on Aβ plaques [2] is “did not”.
